In patent US12060424 (AMUNIX PHARMACEUTICALS, dated 2024):

Columns and labels:
[1] = molecular target: human CD3 on cells (CD3+ Jurkat cells; purified human CD3 positive T cells) (human, UniProt P07766 23-207); test: cell-based or functional assay
[2] = molecular target: T1, Fc-tagged EpCAM (R&D Systems, cat #960-EP-050), human, coupled to SPR chip (human, UniProt P16422 24-265); test: SPR (Biacore 3000), Fc-tagged EpCAM coupled to chip, ProTIA as analyte at 5-6 concentrations
T1 construct: Bought reagent; also called human EpCAM; EpCAM chip; not shown: Fc tag of the bought reagent
T1 sequence (looked up): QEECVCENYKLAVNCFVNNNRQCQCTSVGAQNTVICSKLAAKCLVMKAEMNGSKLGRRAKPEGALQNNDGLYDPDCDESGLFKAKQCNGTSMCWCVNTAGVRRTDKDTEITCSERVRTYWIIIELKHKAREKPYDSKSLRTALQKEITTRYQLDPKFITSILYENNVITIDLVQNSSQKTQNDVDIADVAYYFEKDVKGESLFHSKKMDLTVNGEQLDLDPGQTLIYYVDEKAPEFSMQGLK

[3] = molecular target: recombinant human CD3 epsilon & delta (rhCD3ε & δ), Creative BioMart cat #CD3E&CD3D-219H (human) (UniProt P07766); test: sandwich ELISA: rhCD3ε & δ coated, peroxidase-conjugated protein L detection
[4] = molecular target: T2, human EpCAM expressed on cells (CHO cells stably transfected with human EpCAM); EpCAM-positive human tumor … (human, UniProt P16422 24-314); test: cell-based or functional assay
T2 sequence (looked up): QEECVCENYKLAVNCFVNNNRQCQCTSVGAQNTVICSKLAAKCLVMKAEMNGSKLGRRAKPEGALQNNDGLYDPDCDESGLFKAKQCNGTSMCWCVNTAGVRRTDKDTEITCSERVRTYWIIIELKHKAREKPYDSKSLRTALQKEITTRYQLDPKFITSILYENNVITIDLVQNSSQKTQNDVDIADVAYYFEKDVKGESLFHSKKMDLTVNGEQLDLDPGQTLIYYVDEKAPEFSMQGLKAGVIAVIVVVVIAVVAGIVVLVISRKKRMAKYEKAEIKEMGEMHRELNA

[5] = molecular target: T3, recombinant human EpCAM (rhEpCAM), coated on ELISA plate (human, UniProt P16422 24-265); test: sandwich ELISA: rhEpCAM coated, peroxidase-conjugated protein L detection
T3 construct: Bought reagent
T3 sequence (looked up): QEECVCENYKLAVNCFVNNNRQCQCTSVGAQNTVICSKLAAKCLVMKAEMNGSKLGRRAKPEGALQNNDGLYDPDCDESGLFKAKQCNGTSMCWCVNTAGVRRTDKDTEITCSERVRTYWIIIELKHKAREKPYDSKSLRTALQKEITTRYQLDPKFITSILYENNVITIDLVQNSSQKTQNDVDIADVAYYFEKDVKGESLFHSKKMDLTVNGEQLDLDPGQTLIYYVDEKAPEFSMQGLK

[6] = molecular target: recombinant human CD3 epsilon & delta (rhCD3ε & δ), Creative BioMart cat #CD3E&CD3D-219H (human) (UniProt P07766); test: sandwich ELISA: rhCD3ε & δ coated, biotinylated anti-XTEN antibody detection
[7] = molecular target: recombinant human CD3 epsilon & delta (rhCD3ε & δ), Creative BioMart cat #CD3E&CD3D-219H (human) (UniProt P07766); test: SPR (Biacore 3000), His-tagged CD3εδ coupled to chip, ProTIA as analyte at 5-6 concentrations

Chain of recombinant human CD3 epsilon & delta (rhCD3ε & δ), Creative BioMart cat #CD3E&CD3D-219H (human) (P07766 23-126, stated change not applied, chain 1 of 2): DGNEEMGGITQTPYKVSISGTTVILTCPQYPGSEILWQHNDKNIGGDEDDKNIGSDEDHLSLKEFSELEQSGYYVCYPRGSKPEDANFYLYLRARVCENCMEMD
Chain of recombinant human CD3 epsilon & delta (rhCD3ε & δ), Creative BioMart cat #CD3E&CD3D-219H (human) (P04234 22-105, stated change not applied, chain 2 of 2, further chain): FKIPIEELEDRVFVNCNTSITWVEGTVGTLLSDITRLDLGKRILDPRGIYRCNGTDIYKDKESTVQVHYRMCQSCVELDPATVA
Chain of human CD3 on cells (CD3+ Jurkat cells; purified human CD3 positive T cells) (P07766 23-207): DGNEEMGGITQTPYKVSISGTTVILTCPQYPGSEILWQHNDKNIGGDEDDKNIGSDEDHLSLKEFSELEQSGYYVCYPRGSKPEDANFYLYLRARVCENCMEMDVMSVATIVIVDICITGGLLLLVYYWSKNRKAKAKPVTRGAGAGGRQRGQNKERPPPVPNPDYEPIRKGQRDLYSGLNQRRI

B1: AC1484 non-cleavable anti-EpCAM×anti-CD3 ProTIA (ProTIA without the release segment cleavage sequence) (bispecific antibody)
chain: DIQMTQSPSSLSASVGDRVTITCRSTKSLLHSNGITYLYWYQQKPGKAPKLLIYQMSNLASGVPSRFSSSGSGTDFTLTISSLQPEDFATYYCAQNLEIPRTFGQGTKVEIKGATPPETGAETESPGETTGGSAESEPPGEGQVQLVQSGPGLVQPGGSVRISCAASGYTFTNYGMNWVKQAPGKGLEWMGWINTYTGESTYADSFKGRFTFSLDTSASAAYLQINSLRAEDTAVYYCARFAIKGDYWGQGTLLTVSSGGGGSDIQMTQSPSSLSASVGDRVTITCRASQDIRNYLNWYQQKPGKAPKLLIYYTSRLESGVPSRFSGSGSGTDYTLTISSLQPEDFATYYCQQGNTLPWTFGQGTKVEIKGATPPETGAETESPGETTGGSAESEPPGEGEVQLVESGGGLVQPGGSLRLSCAASGYSFTGYTMNWVRQAPGKGLEWVALINPYKGVSTYNQKFKDRFTISVDKSKNTAYLQMNSLRAEDTAVYYCARSGYYGDSDWYFDVWGQGTLVTVSSGSPGSPAGSPTSTEEGTSESATPESGPGTSTEPSEGSAPGSPAGSPTSTEEGTSTEPSEGSAPGTSTEPSEGSAPGTSESATPESGPGSEPATSGSETPGSEPATSGSETPGSPAGSPTSTEEGTSESATPESGPGTSTEPSEGSAPGTSTEPSEGSAPGSPAGSPTSTEEGTSTEPSEGSAPGTSTEPSEGSAPGTSESATPESGPGTSTEPSEGSAPGTSESATPESGPGSEPATSGSETPGTSTEPSEGSAPGTSTEPSEGSAPGTSESATPESGPGTSESATPESGPGSPAGSPTSTEEGTSESATPESGPGSEPATSGSETPGTSESATPESGPGTSTEPSEGSAPGTSTEPSEGSAPGTSTEPSEGSAPGTSTEPSEGSAPGTSTEPSEGSAPGTSTEPSEGSAPGSPAGSPTSTEEGTSTEPSEGSAPGTSESATPESGPGSEPATSGSETPGTSESATPESGPGSEPATSGSETPGTSESATPESGPGTSTEPSEGSAPGTSESATPESGPGSPAGSPTSTEEGSPAGSPTSTEEGSPAGSPTSTEEGTSESATPESGPGTSTEPSEGSAPGTSESATPESGPGSEPATSGSETPGTSESATPESGPGSEPATSGSETPGTSESATPESGPGTSTEPSEGSAPGSPAGSPTSTEEGTSESATPESGPGSEPATSGSETPGTSESATPESGPGSPAGSPTSTEEGSPAGSPTSTEEGTSTEPSEGSAPGTSESATPESGPGTSESATPESGPGTSESATPESGPGSEPATSGSETPGSEPATSGSETPGSPAGSPTSTEEGTSTEPSEGSAPGTSTEPSEGSAPGSEPATSGSETPGTSESATPESGPGTSTEPSEGSAPGHHHHHH
notes: Single chain: anti-EpCAM scFv, anti-CD3 scFv, XTEN864, His6, no release segment; also called non-cleavable ProTIA; protease-non-cleavable anti-EpCAM×anti-CD3 ProTIA
With B1 as the binder, how does the “EC50, LDH release cytotoxicity, purified human CD3 positive T cells with OVCAR-3 cells 5:1” value [1] read?
The value was 0.086 nM.

What about the “EC50, LDH release cytotoxicity, purified human CD3 positive T cells with SK-OV-3 cells 5:1” value [1] of the same binder?
The value was 2.66 nM.

And the Kd [2]?
Its Kd is 10 nM.

What about the EC50 [3] of the same binder?
The EC50 was 2.2 nM.

What about the “EC50 (pM), caspase 3/7 cytotoxicity, PBMC with HCT-116 cells 10:1” value [4] of the same binder?
The value was 1270 pM.

What about the “EC50 (pM), caspase 3/7 cytotoxicity, PBMC with HPAF-II cells 10:1” value [4] of the same binder?
Its value is 1170 pM.

What about the “EC50 (pM), caspase 3/7 cytotoxicity, PBMC with MDA-MB-231 cells 10:1” value [4] of the same binder?
The value was 10200 pM.

And the EC50 [5]?
The EC50 was 0.32 nM.

What about the EC50 [6] of the same binder?
Its EC50 is 0.027 mg/L.

And the Kd [7]?
Its Kd is 27.8 nM.
